From patent publication US20200002405A1 (ADMINISTRATORS OF THE TULANE EDUCATIONAL FUND, published 2020)

T1: LASV Josiah (lineage IV) glycoprotein, full-length GP (Lassa virus, Josiah strain, UniProt P08669 2-491)
T1 sequence: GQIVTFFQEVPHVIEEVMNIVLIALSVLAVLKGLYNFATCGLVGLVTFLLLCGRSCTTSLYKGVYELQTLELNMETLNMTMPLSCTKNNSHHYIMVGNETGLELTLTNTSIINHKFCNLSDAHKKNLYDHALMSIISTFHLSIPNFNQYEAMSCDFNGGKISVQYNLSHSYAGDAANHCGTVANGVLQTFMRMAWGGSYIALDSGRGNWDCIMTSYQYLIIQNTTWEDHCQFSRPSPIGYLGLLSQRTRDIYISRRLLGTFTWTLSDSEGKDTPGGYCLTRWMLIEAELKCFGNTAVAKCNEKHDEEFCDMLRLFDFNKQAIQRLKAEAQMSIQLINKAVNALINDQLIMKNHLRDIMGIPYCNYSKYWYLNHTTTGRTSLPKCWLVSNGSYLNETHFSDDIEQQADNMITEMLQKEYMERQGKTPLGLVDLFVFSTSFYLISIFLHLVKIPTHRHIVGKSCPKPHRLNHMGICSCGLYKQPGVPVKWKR

T2: LCMV WE strain GP (LCMV, WE strain, UniProt P07399 2-498)
T2 construct: whole, on cells
T2 sequence: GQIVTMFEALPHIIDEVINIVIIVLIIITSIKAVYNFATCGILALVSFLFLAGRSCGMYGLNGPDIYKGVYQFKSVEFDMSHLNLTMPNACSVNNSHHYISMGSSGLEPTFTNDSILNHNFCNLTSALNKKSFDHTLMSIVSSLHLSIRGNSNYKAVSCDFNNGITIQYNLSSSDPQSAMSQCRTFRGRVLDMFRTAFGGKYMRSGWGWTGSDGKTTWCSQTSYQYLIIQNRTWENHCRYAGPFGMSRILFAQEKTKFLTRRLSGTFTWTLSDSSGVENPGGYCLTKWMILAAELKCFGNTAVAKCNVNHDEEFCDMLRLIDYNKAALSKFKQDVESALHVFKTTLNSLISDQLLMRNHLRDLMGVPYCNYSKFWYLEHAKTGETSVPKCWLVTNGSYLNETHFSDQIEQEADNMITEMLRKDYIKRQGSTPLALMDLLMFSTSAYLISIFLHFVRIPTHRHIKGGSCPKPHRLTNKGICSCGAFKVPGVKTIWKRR

B1: 8.11G (antibody, V domains shown)
VH: QVQLQESGPGLVKPSETLSLTCSISGVSTRNYYWSWIRQSPGKGLEWIGYIFNIGTTNYNPSLKSRLTISVDTSKNQFSLKITSVTAADTAVYYCASGFEYGDYTFDYWGQGTPVTVSS
VL: EIVLTQSPATLSVSPGGRASLSCRASQSIGDKLSWYQQKPGQAPRLVIYGAYTRATDISPRFSGSRSGTDFNLTISRMQSGDFAVYFCQQYENWPRTFGQGTKLEIKR
B2: 25.6A (antibody, V domains shown)
VH: QVQLQESGGGLVKAGGSLRLSCAASGFMFERYSLHWVRQTPGKGLEWVSSISSLSGSHINYADSVKGRFTISRDNAKNSLSLQMNSLRVEDTAIYYCARDRRSGSSPVPLDVWGQGTTVTVSS
VL: DLPVLTQPASVSGSPGQSITISCTGTSSDVGAYNYVSWYQQHPGKAPKLIIYEVKIRPSGVSNRFSGSKSGNTASLTISGLQAEDEADYFCSSYSTNSPWVFGGGTKVTVLR
B3: 18.5C (antibody)
VH: DEVQLVESGGGLVRPGGSLRLSCAAAGFTFKSYSMNWVRQAPGRGLEWVSSITSGGSKTYYADVVKGRFTVSRDNAKQSLYLQMNSLRAEDTAIYFCARSLHSTSQPSYMDVWGRKITVIVSSASTKGPSVFPLAPSSKSTSGGTAALGCLVKDYFPEPVTVSWNSGALTSGVHTFPAVLQSSGLYSLSSVVTVPSSSLGTQTYICNVNHKPSNTKVDKRVEPKSCDKTHTCPPCPAPELLGGPSVFLFPPKPKDTLMISRTPEVTC
VL: DDIQMTQSPGTLSLSPGERATLSCRASQSVISYYVAWYQHKGGQAPRLLIYGASSRATGVPDRFSGSGSGTDFTLTISSLEPEDFALYYCQYYGSSPLWAFGQGTKVEIKRTVAAPSVFIFPPSDEQLKSGTASVVCLLNNFYPREAKVQWKVDNALQSGNSQESVTEQDSKDSTYSLSSTLTLSKADYEKHKVYACEVTHQGLSSPVTKSFNRGEC
B4: 9.8A (antibody, V domains shown)
VH: EVQLVQSGGRLVQPGGSLRLSCVASGFTFSSHAMSWVRQAPGKGLEWVSGFSGSSGTTKYADSVKGRFTISRDNSKKTLYLQMNSLRAEDTAVYYCAKGFSPFRGVQFPYFDYWGQGTLVTVSS
VL: DIVMTQSPSTLSASVGDRVTITCRASQSIDRWLAWYQQKPGKAPKLLIYQASSLERGVPSRFSGSGSGTEFTLTISSLQPDDFATYYCQQYNGYPLTFGGGTKVEIKR
B5: 10.4B (antibody)
VH: DQVQLVQSGGGVVQPGRSLRVSCVTSGFNFRAYGMHWVRQIPGKGLEWVADIWSAETNRHYADSVKGRFTISRDNSKSTLYLQMNSLRAEDTGVYFCAKARPGYDYVVDLWGQGTLVIVSSASTKGPSVFPLAPCSRSTSGGTAALGCLVKDYFPEPVTVSWNSGALTSGVHTFPAVLQSSGL
VL: DEIVLTQSPSSLSASVGDRVTITCRASRDINTYLGWFQQRPGKAPKSLIYGASNLQNGVPSRFSGSGSGTYFTLTINGLQTEDFATYYCQQYSIYPLSLGGGTKADMKRTVAAPSVFIFPPSDEQLKSGTASVVCLLNNFYPREAKVQWKVDNALQSGNSQESVTEQDSKDSTYSLSSTLTLSKADYEKHKVYACEVTHQGLSSP
B6: 36.9F (antibody, V domains shown)
VH: EVQLVQSGGGLVKAGGSLKLSCGASGFTFSSYSMSWVRQAPGKGLEWVSYISSGGSSIHYADSVKGRFTISRDNAKNSLYLQMKNLRVDDTGRYYCVRDPRSGISGRYGMDVWGQGTTVTVSS
VL: DIVMTQSPDSLAVSLGERATINCKSSQTVLFTSYYVAWYQQKPGQPPKLLFSGASSRESGVPDRFSAGGSGTDFYLTINSLQAEDVADYYCQQYHTPPFTFGGGTKLEIRR
B7: 25.10C (antibody, V domains shown)
VH: QVQLQESGGGLVKPGGSLRLSCTASGFNFNKYNMNWVRQAPGKGLEWVSSISALSTYIYYADSLKGRFTVSRDNAKNSLFLQMNSLRDDDTAVYYCAREIRRASTWSADLWGRGTLVTVSS
VL: DIQMTQSPSSLSASVGDRVIITCRASQSISSSLNWYQQKPGKAPKLLIYAAVNLETGVPSRFSGSGFGTDFTLAISNVQPEDFATYYCQQSDTRTFGRGTKLDVKR
B8: 19.7E (antibody, V domains shown)
VH: EVQLVESGGGLVRPGGSLRLSCAASGFSFSSYSMHWVRHVPGKGLVWVSYINSDGSTKIYADSVKGRFSISRDNAKNKLYLQMDSLRVEDTAVYSCVRLVHYDWSPFVWGQGTLVTVSS
VL: EIVLTQSPSTLSASVGDRVTITCRASQSINNWLAWYQEKPGKAPKLLINKASSLESGVPSRFSGSGSGTEFTLTITSLQPDDFATYYCQQYNSNSWTFGQGTKVDMKR
B9: NE13 (antibody, V domains shown)
VH: EVQLVESGGGLVKPGGSLRLSCVASGFTFSSYSMNWVRQAPGKGLEWVSSISSGSSYIEYADSVKGRLTISRDNAKKSLYLQLNSLRAEDTAVYYCARHTARIDSYHGMDVWGQGTTVTVSS
VL: ETTLTQSPGTLSLSPGERATLSCRASQSVSSTYLAWYQQKPGQSPRLLIYGASSRATGIPDRFSGSGSGTQFTLTINRLEPEDFAVYYCQQFGSPWTFGQGTKVEIKR

target: T1, LASV Josiah (lineage IV) glycoprotein, …; experiment: cell-based or functional assay

Row | Binder | IC50 (neutralization) | IC80 (neutralization)
1 | B1 | 0.361 µg/mL | 1.74 µg/mL
2 | B2 | 0.743 µg/mL | 2 µg/mL
3 | B3 | 1.94 µg/mL | 3.98 µg/mL
4 | B4 | 1.31 µg/mL | 2.42 µg/mL
5 | B5 | > 20 µg/mL | > 20 µg/mL
6 | B6 | 18 µg/mL | > 20 µg/mL

target: LASV 237 (lineage III) glycoprotein (Lassa virus, strain 237); experiment: cell-based or functional assay

Row | Binder | IC50 (neutralization) | IC80 (neutralization)
7 | B1 | 1.17 µg/mL | 3.64 µg/mL
8 | B2 | 0.169 µg/mL | 0.603 µg/mL
9 | B3 | 0.621 µg/mL | 3.23 µg/mL
10 | B4 | 0.193 µg/mL | 0.494 µg/mL
11 | B5 | > 20 µg/mL | > 20 µg/mL
12 | B6 | 4.69 µg/mL | 19.4 µg/mL

target: LASV A19 (lineage II) glycoprotein (Lassa virus, strain A19); experiment: cell-based or functional assay

Row | Binder | IC50 (neutralization) | IC80 (neutralization)
13 | B1 | 1.48 µg/mL | 4.59 µg/mL
14 | B2 | 0.483 µg/mL | 3.51 µg/mL
15 | B3 | 1.2 µg/mL | 4.63 µg/mL
16 | B4 | 0.15 µg/mL | 0.527 µg/mL
17 | B5 | > 20 µg/mL | > 20 µg/mL
18 | B6 | 13 µg/mL | > 20 µg/mL

target: LASV Pinneo (lineage I) glycoprotein (Lassa virus, strain Pinneo); experiment: cell-based or functional assay

Row | Binder | IC50 (neutralization) | IC80 (neutralization)
19 | B1 | 3.25 µg/mL | 10.5 µg/mL
20 | B2 | 1.83 µg/mL | 3.11 µg/mL
21 | B3 | 6.11 µg/mL | 12.2 µg/mL
22 | B4 | 1 µg/mL | 2.59 µg/mL
23 | B5 | > 20 µg/mL | > 20 µg/mL
24 | B6 | 6.98 µg/mL | > 20 µg/mL

target: T1, LASV Josiah (lineage IV) glycoprotein, …; experiment: cell-based or functional assay; remark: another data set of the same source

Row | Binder | IC50 (neutralization) | IC80 (neutralization)
25 | B1 | > 10 µg/mL | > 10 µg/mL
26 | B2 | 0.188 µg/mL | 0.3 µg/mL
27 | B3 | > 10 µg/mL | > 10 µg/mL
28 | B4 | 0.139 µg/mL | 0.253 µg/mL
29 | B5 | > 10 µg/mL | > 10 µg/mL
30 | B6 | 0.57 µg/mL | 2.23 µg/mL

target: T2, LCMV WE strain GP; experiment: immunofluorescence, 293T cells transfected with GP plasmid

Row | Binder | binding result
31 | B1 | no binding
32 | B7 | no binding
33 | B8 | no binding
34 | B9 | no binding
35 | B5 | no binding
